Assay results as given in the Immune Epitope Database (IEDB).

Assays:
HLA-A*02:03 [1] = assay: IEDB peptide-MHC binding, purified MHC/competitive/fluorescence; filed as Kd, often an IC50 or EC50 that approximates it; ≥ and ≤ were set here for values at or beyond the usual limits of such assays
HLA-A*31:01 = assay: as above; conditions: source organism: Human immunodeficiency virus 1
HLA-A*02:06 = assay: as above; conditions: source organism: Human immunodeficiency virus 1
HLA-A*30:01 = assay: as above; conditions: source organism: Human immunodeficiency virus 1
HLA-B*39:01 = assay: as above
HLA-C*12:03 = assay: IEDB peptide-MHC binding, purified MHC/direct/fluorescence; filed as Kd, often an IC50 or EC50 that approximates it; ≥ and ≤ were set here for values at or beyond the usual limits of such assays
HLA-C*03:03 = assay: as above
HLA-A*02:01 = assay: IEDB peptide-MHC binding, purified MHC/competitive/fluorescence; filed as Kd, often an IC50 or EC50 that approximates it; ≥ and ≤ were set here for values at or beyond the usual limits of such assays
HLA-B*57:01 = assay: as above
HLA-A*69:01 = assay: as above
HLA-A*26:01 = assay: as above
HLA-B*46:01 = assay: as above
HLA-A*68:02 [2] = assay: as above
HLA-B*27:03 = assay: as above
HLA-A*02:12 [3] = assay: as above
HLA-B*51:01 = assay: as above
HLA-B*15:01 = assay: as above
HLA-B*18:01 = assay: as above
HLA-A*03:01 [4] = assay: as above
HLA-B*35:01 = assay: as above
HLA-B*07:02 = assay: as above
HLA-A*29:02 = assay: as above
HLA-A*02:19 [5] = assay: as above
HLA-A*23:01 = assay: as above; conditions: source organism: Rickettsia sibirica 246
HLA-B*08:01 = assay: as above; conditions: source organism: Yersinia pestis Nepal516
HLA-B*15:17 = assay: as above; conditions: source organism: Vibrio parahaemolyticus AQ3810
HLA-A*24:03 = assay: as above
HLA-A*02:11 [6] = assay: as above; conditions: source organism: Entamoeba histolytica HM-1:IMSS
HLA-A*02:03 [7] = assay: IEDB peptide-MHC binding, purified MHC/direct/fluorescence; filed as Kd, often an IC50 or EC50 that approximates it; ≥ and ≤ were set here for values at or beyond the usual limits of such assays; conditions: source organism: Orthohantavirus andesense
HLA-A*68:02 [8] = assay: as above; conditions: source organism: Orthohantavirus andesense
HLA-A*02:12 [9] = assay: as above; conditions: source organism: Orthohantavirus andesense
HLA-A*02:19 [10] = assay: as above; conditions: source organism: Orthohantavirus andesense
HLA-A*02:11 [11] = assay: as above; conditions: source organism: Orthohantavirus andesense
HLA-A*02:16 = assay: as above; conditions: source organism: Orthohantavirus andesense
HLA-A*03:01 [12] = assay: as above; conditions: source organism: Orthohantavirus andesense
[13] = source organism: Human immunodeficiency virus 1
[14] = source organism: Vaccinia virus WR
[15] = source organism: Yersinia pestis Nepal516
[16] = source organism: Bacillus cereus G9241
[17] = source organism: Entamoeba dispar SAW760
[18] = source organism: Mycobacterium avium
[19] = source organism: Vibrio parahaemolyticus AQ3810
[20] = source organism: Giardia lamblia ATCC 50803
[21] = source organism: Entamoeba histolytica HM-1:IMSS
[22] = source organism: Orthohantavirus andesense

EKLKSLYNTI
Kd (HLA-A*02:03 [1]; [13]): 0.0239 µM | Kd (HLA-A*31:01): 4.47 µM | Kd (HLA-A*02:06): 3.71 µM | Kd (HLA-A*30:01): 0.072 µM | Kd (HLA-B*39:01; [13]): 0.747 µM

FLRDNLYHV
Kd (HLA-C*12:03; [14]): 0.029 µM | Kd (HLA-C*03:03; [14]): ≥ 20 µM | Kd (HLA-A*02:01; [14]): 0.0016 µM

ILHRLAPWI
Kd (HLA-B*57:01; [15]): ≥ 20 µM | Kd (HLA-A*69:01; [15]): ≥ 20 µM | Kd (HLA-A*26:01; [15]): ≥ 20 µM | Kd (HLA-B*46:01; [15]): ≥ 20 µM | Kd (HLA-A*68:02 [2]; [15]): ≥ 20 µM | Kd (HLA-B*27:03; [15]): ≥ 20 µM | Kd (HLA-A*02:12 [3]; [15]): 0.103 µM | Kd (HLA-B*51:01; [15]): ≥ 20 µM | Kd (HLA-A*02:01; [15]): 0.0473 µM | Kd (HLA-B*15:01; [15]): ≥ 20 µM | Kd (HLA-B*18:01; [15]): ≥ 20 µM | Kd (HLA-A*03:01 [4]; [15]): ≥ 20 µM | Kd (HLA-B*39:01; [15]): ≥ 20 µM

IPLSILLTL
Kd (HLA-B*51:01; [16]): 0.954 µM | Kd (HLA-B*35:01; [16]): 0.0004 µM | Kd (HLA-B*07:02; [16]): 0.028 µM

KDGTLFYCY
Kd (HLA-B*57:01; [17]): ≥ 20 µM | Kd (HLA-A*02:03 [1]; [17]): ≥ 20 µM | Kd (HLA-A*69:01; [17]): ≥ 20 µM | Kd (HLA-A*26:01; [17]): ≥ 20 µM | Kd (HLA-B*46:01; [17]): ≥ 20 µM | Kd (HLA-A*68:02 [2]; [17]): ≥ 20 µM | Kd (HLA-B*27:03; [17]): ≥ 20 µM | Kd (HLA-A*29:02; [17]): 0.106 µM | Kd (HLA-A*02:12 [3]; [17]): ≥ 20 µM | Kd (HLA-A*02:19 [5]; [17]): ≥ 20 µM | Kd (HLA-B*51:01; [17]): ≥ 20 µM | Kd (HLA-B*15:01; [17]): ≥ 20 µM | Kd (HLA-A*03:01 [4]; [17]): ≥ 20 µM | Kd (HLA-B*39:01; [17]): ≥ 20 µM

KFVAGAMNI
Kd (HLA-A*23:01): 0.0117 µM

LAANFVVAL
Kd (HLA-C*12:03; [18]): 0.206 µM | Kd (HLA-C*03:03; [18]): 0.124 µM

LPLNRAYPL
Kd (HLA-B*51:01; [15]): 2.57 µM | Kd (HLA-B*35:01; [15]): ≤ 0.0001 µM | Kd (HLA-B*07:02; [15]): 0.0063 µM | Kd (HLA-B*08:01): 0.06 µM | Kd (HLA-B*39:01; [15]): 0.0093 µM

MLTNASGHA
Kd (HLA-B*57:01; [19]): ≥ 20 µM | Kd (HLA-A*69:01; [19]): ≥ 20 µM | Kd (HLA-A*26:01; [19]): ≥ 20 µM | Kd (HLA-B*46:01; [19]): ≥ 20 µM | Kd (HLA-B*27:03; [19]): ≥ 20 µM | Kd (HLA-A*29:02; [19]): ≥ 20 µM | Kd (HLA-A*02:12 [3]; [19]): 0.438 µM | Kd (HLA-A*02:19 [5]; [19]): ≥ 20 µM | Kd (HLA-B*51:01; [19]): ≥ 20 µM | Kd (HLA-A*02:01; [19]): 0.2 µM | Kd (HLA-B*15:01; [19]): ≥ 20 µM | Kd (HLA-B*15:17): ≥ 20 µM | Kd (HLA-B*18:01; [19]): ≥ 20 µM | Kd (HLA-A*03:01 [4]; [19]): ≥ 20 µM | Kd (HLA-A*24:03; [19]): ≥ 20 µM | Kd (HLA-B*39:01; [19]): ≥ 20 µM

RIRFVQNAL
Kd (HLA-B*07:02; source organism: Influenza A virus (A/Denver/1957(H1N1))): 0.0199 µM

RLREALCAV
Kd (HLA-C*03:03; source organism: Mycobacterium tuberculosis str. Haarlem): ≥ 20 µM

RMAATAQVL
Kd (HLA-C*03:03; source organism: Mycobacterium tuberculosis C): 0.012 µM

TELPLAYER
Kd (HLA-B*57:01; [20]): ≥ 20 µM | Kd (HLA-A*02:03 [1]; [20]): ≥ 20 µM | Kd (HLA-A*26:01; [20]): ≥ 20 µM | Kd (HLA-B*46:01; [20]): ≥ 20 µM | Kd (HLA-B*27:03; [20]): ≥ 20 µM | Kd (HLA-A*02:12 [3]; [20]): ≥ 20 µM | Kd (HLA-A*02:19 [5]; [20]): ≥ 20 µM | Kd (HLA-B*51:01; [20]): ≥ 20 µM | Kd (HLA-A*02:01; [20]): ≥ 20 µM | Kd (HLA-B*15:01; [20]): ≥ 20 µM | Kd (HLA-B*18:01; [20]): 0.395 µM | Kd (HLA-A*03:01 [4]; [20]): ≥ 20 µM | Kd (HLA-A*24:03; [20]): ≥ 20 µM | Kd (HLA-B*39:01; [20]): ≥ 20 µM

TLPGCLIIL
Kd (HLA-B*57:01; [21]): ≥ 20 µM | Kd (HLA-A*26:01; [21]): ≥ 20 µM | Kd (HLA-B*46:01; [21]): ≥ 20 µM | Kd (HLA-B*27:03; [21]): ≥ 20 µM | Kd (HLA-A*02:11 [6]): 4.65 µM | Kd (HLA-B*51:01; [21]): ≥ 20 µM | Kd (HLA-B*15:01; [21]): ≥ 20 µM | Kd (HLA-B*18:01; [21]): ≥ 20 µM | Kd (HLA-A*03:01 [4]; [21]): ≥ 20 µM | Kd (HLA-B*39:01; [21]): ≥ 20 µM

VFTSRIQVI
Kd (HLA-A*02:03 [7]): ≥ 20 µM | Kd (HLA-A*68:02 [8]): ≥ 20 µM | Kd (HLA-A*02:12 [9]): ≥ 20 µM | Kd (HLA-A*02:19 [10]): ≥ 20 µM | Kd (HLA-A*02:11 [11]): ≥ 20 µM | Kd (HLA-A*02:16): ≥ 20 µM | Kd (HLA-A*03:01 [12]): ≥ 20 µM | Kd (HLA-B*57:01; [22]): ≥ 20 µM | Kd (HLA-A*69:01; [22]): ≥ 20 µM | Kd (HLA-A*26:01; [22]): ≥ 20 µM | Kd (HLA-B*46:01; [22]): ≥ 20 µM | Kd (HLA-B*27:03; [22]): ≥ 20 µM | Kd (HLA-B*51:01; [22]): ≥ 20 µM | Kd (HLA-A*02:01; [22]): ≥ 20 µM | Kd (HLA-B*18:01; [22]): ≥ 20 µM | Kd (HLA-A*24:03; [22]): 0.0246 µM | Kd (HLA-B*39:01; [22]): ≥ 20 µM
